# B1: Arl2 (protein)
# chain: GLLTILKKMKQKERELRLLMLGLDNAGKTTILKKFNGEDVDTISPTLGFNIKTLEHRGFKLNIWDVGGQKSLRSYWRNYFESTDGLIWVVDSADRQRMQDCQRELQSLLVEERLAGATLLIFANKQDLPGALSCNAIQEALELDSIRSHHWRIQGCSAVTGEDLLPGIDWLLDDISSRVFTAD
# modifications: mant-GppNHp-bound Arl2
# Experiments:
# BARTL1 (CCDC104/CFAP36) = BARTL1 (CCDC104/CFAP36) (Homo sapiens, UniProt Q96G28); assay: fluorescence polarization
# [1] = target: BARTL1 (CCDC104/CFAP36) 1-133 (Homo sapiens, UniProt Q96G28); assay: fluorescence polarization
# Chain of BARTL1 (CCDC104/CFAP36) 1-133 (Q96G28 1-133): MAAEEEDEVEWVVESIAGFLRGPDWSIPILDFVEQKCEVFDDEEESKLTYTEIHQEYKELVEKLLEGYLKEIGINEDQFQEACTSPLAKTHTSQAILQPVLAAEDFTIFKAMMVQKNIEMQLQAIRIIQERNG
# Chain of BARTL1 (CCDC104/CFAP36) (Q96G28 whole entry): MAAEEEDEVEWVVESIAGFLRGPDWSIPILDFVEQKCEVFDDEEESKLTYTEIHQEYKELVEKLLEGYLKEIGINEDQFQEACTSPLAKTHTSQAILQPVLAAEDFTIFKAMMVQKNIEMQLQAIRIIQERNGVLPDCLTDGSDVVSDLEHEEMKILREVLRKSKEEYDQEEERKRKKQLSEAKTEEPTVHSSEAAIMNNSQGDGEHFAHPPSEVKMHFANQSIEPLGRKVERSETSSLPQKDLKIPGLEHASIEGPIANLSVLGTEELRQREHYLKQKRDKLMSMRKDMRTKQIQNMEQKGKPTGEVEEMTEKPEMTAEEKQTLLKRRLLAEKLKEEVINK
binder,measurement,setting,value
B1,Kd,BARTL1 (CCDC104/CFAP36),~10 µM
same,Kd,[1],~4.3 µM

# From PMC4635315 (2015)
